B1: wild-type Tsa1 (recombinant, 6X-His tagged) (enzyme, S. cerevisiae)
chain: MVAQVQKQAPTFKKTAVVDGVFDEVSLDKYKGKYVVLAFIPLAFTFVCPTEIIAFSEAAKKFEEQGAQVLFASTDSEYSLLAWTNIPRKEGGLGPINIPLLADTNHSLSRDYGVLIEEEGVALRGLFIIDPKGVIRHITINDLPVGRNVDEALRLVEAFQWTDKNGTVLPCNWTPGAATIKPTVEDSKEYFEAANK
B2: F^44A Tsa1 (recombinant, 6X-His tagged) (enzyme, S. cerevisiae)
chain: MVAQVQKQAPTFKKTAVVDGVFDEVSLDKYKGKYVVLAFIPLAATFVCPTEIIAFSEAAKKFEEQGAQVLFASTDSEYSLLAWTNIPRKEGGLGPINIPLLADTNHSLSRDYGVLIEEEGVALRGLFIIDPKGVIRHITINDLPVGRNVDEALRLVEAFQWTDKNGTVLPCNWTPGAATIKPTVEDSKEYFEAANK
B3: Y^78L Tsa1 (recombinant, 6X-His tagged) (enzyme, S. cerevisiae)
chain: MVAQVQKQAPTFKKTAVVDGVFDEVSLDKYKGKYVVLAFIPLAFTFVCPTEIIAFSEAAKKFEEQGAQVLFASTDSELSLLAWTNIPRKEGGLGPINIPLLADTNHSLSRDYGVLIEEEGVALRGLFIIDPKGVIRHITINDLPVGRNVDEALRLVEAFQWTDKNGTVLPCNWTPGAATIKPTVEDSKEYFEAANK
B4: FYA Tsa1 (F^44A,Y^78A; recombinant, 6X-His tagged) (enzyme, S. cerevisiae)
chain: MVAQVQKQAPTFKKTAVVDGVFDEVSLDKYKGKYVVLAFIPLAATFVCPTEIIAFSEAAKKFEEQGAQVLFASTDSEASLLAWTNIPRKEGGLGPINIPLLADTNHSLSRDYGVLIEEEGVALRGLFIIDPKGVIRHITINDLPVGRNVDEALRLVEAFQWTDKNGTVLPCNWTPGAATIKPTVEDSKEYFEAANK
B5: F^44L Tsa1 (recombinant, 6X-His tagged) (enzyme, S. cerevisiae)
chain: MVAQVQKQAPTFKKTAVVDGVFDEVSLDKYKGKYVVLAFIPLALTFVCPTEIIAFSEAAKKFEEQGAQVLFASTDSEYSLLAWTNIPRKEGGLGPINIPLLADTNHSLSRDYGVLIEEEGVALRGLFIIDPKGVIRHITINDLPVGRNVDEALRLVEAFQWTDKNGTVLPCNWTPGAATIKPTVEDSKEYFEAANK
B6: Y^78A Tsa1 (recombinant, 6X-His tagged) (enzyme, S. cerevisiae)
chain: MVAQVQKQAPTFKKTAVVDGVFDEVSLDKYKGKYVVLAFIPLAFTFVCPTEIIAFSEAAKKFEEQGAQVLFASTDSEASLLAWTNIPRKEGGLGPINIPLLADTNHSLSRDYGVLIEEEGVALRGLFIIDPKGVIRHITINDLPVGRNVDEALRLVEAFQWTDKNGTVLPCNWTPGAATIKPTVEDSKEYFEAANK
B7: FYL Tsa1 (F^44L,Y^78L; recombinant, 6X-His tagged) (enzyme, S. cerevisiae)
chain: MVAQVQKQAPTFKKTAVVDGVFDEVSLDKYKGKYVVLAFIPLALTFVCPTEIIAFSEAAKKFEEQGAQVLFASTDSELSLLAWTNIPRKEGGLGPINIPLLADTNHSLSRDYGVLIEEEGVALRGLFIIDPKGVIRHITINDLPVGRNVDEALRLVEAFQWTDKNGTVLPCNWTPGAATIKPTVEDSKEYFEAANK

The values below come from PMC7036284 (Chemical research in toxicology, 2019).

The first data set deals with the molecule itself. Put plainly: native gel or EMSA.
For the protein B1, the “stoichiometry N” value was 10.

B2: the “stoichiometry N” value was found to be 2.

The next data set deals with the molecule itself. Put plainly: SEC-MALS.
Consider B3, for which the “stoichiometry N” value is 2.

As for B4, the “stoichiometry N” value came to 2.

Regarding B5, the “stoichiometry N” value worked out at 2.

Regarding B6, the “stoichiometry N” value is 2.

B7: the “stoichiometry N” value came to 2.
